The source of these data is patent US20210388087A1 (Chugai, published 2021).

Where a chain is given by its changes, count along the chain named.

First the molecules themselves.
B1: CE115HA000 T57K (antibody, human IgG1, kappa, L234A L235A, N297A, name in Kabat numbering)
heavy: QVQLVESGGGVVQPGRSLRLSCAASGFTFSNAWMHWVRQAPGKGLEWVAQIKAKSNNYAKYYAESVKGRFTISRDDSKNSLYLQMNSLKTEDTAVYYCRYVHYGAYYGVDAWGQGTTVTVSSASTKGPSVFPLAPSSKSTSGGTAALGCLVKDYFPEPVTVSWNSGALTSGVHTFPAVLQSSGLYSLSSVVTVPSSSLGTQTYICNVNHKPSNTKVDKKVEPKSCDKTHTCPPCPAPEAAGGPSVFLFPPKPKDTLMISRTPEVTCVVVDVSHEDPEVKFNWYVDGVEVHNAKTKPREEQYASTYRVVSVLTVLHQDWLNGKEYKCKVSNKALPAPIEKTISKAKGQPREPQVYTLPPSRCELTKNQVSLSCAVKGFYPSDIAVEWESNGQPENNYKTTPPVLDSDGSFFLVSKLTVDKSRWQQGNVFSCSVMHEALHNHYTQKSLSLSPDYKDDDDK
chain: EPKSSDKTHTCPPCPAPELLGGPSVFLFPPKPKDTLMISRTPEVTCVVVDVSHEDPEVKFNWYVDGVEVHNAKTKPREEQYNSTYRVVSVLTVLHQDWLNGKEYKCKVSNKALPAPIEKTISKAKGQPREPQVCTLPPSRDELTKNQVSLWCLVKGFYPSDIAVEWESNGQPENNYKTTPPVLDSDGSFFLYSKLTVDKSRWQQGNVFSCSVMHEALHNRYTQKSLSLSP
light: DIVMTQSPLSLPVTPGEPASISCRSSQSLVHSNRNTYLHWYQQKPGQAPRLLIYKVSNRFSGVPDRFSGSGSGTDFTLKISRVEAEDVGVYYCGQGTQVPYTFGQGTKLEIKRTVAAPSVFIFPPSDEQLKSGTASVVCLLNNFYPREAKVQWKVDNALQSGNSQESVTEQDSKDSTYSLSSTLTLSKADYEKHKVYACEVTHQGLSSPVTKSFNRGEC
notes: one-arm antibody
B2: CE115HA000 V95D (antibody, human IgG1, kappa, L234A L235A, N297A, name in Kabat numbering)
heavy: B1 heavy with K60T, V101D
chain: B1 chain
light: B1 light
notes: one-arm antibody
B3: CE115HA000 Y58N (antibody, human IgG1, kappa, L234A L235A, N297A, name in Kabat numbering)
heavy: B1 heavy with K60T, Y61N
chain: B1 chain
light: B1 light
notes: one-arm antibody
B4: CE115HA000 Y58L (antibody, human IgG1, kappa, L234A L235A, N297A, name in Kabat numbering)
heavy: B1 heavy with K60T, Y61L
chain: B1 chain
light: B1 light
notes: one-arm antibody
B5: CE115HA000 V95A (antibody, human IgG1, kappa, L234A L235A, N297A, name in Kabat numbering)
heavy: B1 heavy with K60T, V101A
chain: B1 chain
light: B1 light
notes: one-arm antibody
B6: CE115HA000 Y55D (antibody, human IgG1, kappa, L234A L235A, N297A, name in Kabat numbering)
heavy: B1 heavy with Y58D, K60T
chain: B1 chain
light: B1 light
notes: one-arm antibody
B7: CE115HA000 W33H (antibody, human IgG1, kappa, L234A L235A, N297A, name in Kabat numbering)
heavy: B1 heavy with W33H, K60T
chain: B1 chain
light: B1 light
notes: one-arm antibody
B8: CE115HA000 Y55G (antibody, human IgG1, kappa, L234A L235A, N297A, name in Kabat numbering)
heavy: B1 heavy with Y58G, K60T
chain: B1 chain
light: B1 light
notes: one-arm antibody
B9: CE115HA000 Y97A (antibody, human IgG1, kappa, L234A L235A, N297A, name in Kabat numbering)
heavy: B1 heavy with K60T, Y103A
chain: B1 chain
light: B1 light
notes: one-arm antibody
B10: CE115HA000 Y59E (antibody, human IgG1, kappa, L234A L235A, N297A, name in Kabat numbering)
heavy: B1 heavy with K60T, Y62E
chain: B1 chain
light: B1 light
notes: one-arm antibody
B11: CE115HA000 V100cP (antibody, human IgG1, kappa, L234A L235A, N297A, name in Kabat numbering)
heavy: B1 heavy with K60T, V109P
chain: B1 chain
light: B1 light
notes: one-arm antibody
B12: CE115HA000 Y58K (antibody, human IgG1, kappa, L234A L235A, N297A, name in Kabat numbering)
heavy: B1 heavy with K60T, Y61K
chain: B1 chain
light: B1 light
notes: one-arm antibody
B13: CE115HA000 V100cE (antibody, human IgG1, kappa, L234A L235A, N297A, name in Kabat numbering)
heavy: B1 heavy with K60T, V109E
chain: B1 chain
light: B1 light
notes: one-arm antibody
B14: CE115HA000 Y59A (antibody, human IgG1, kappa, L234A L235A, N297A, name in Kabat numbering)
heavy: B1 heavy with K60T, Y62A
chain: B1 chain
light: B1 light
notes: one-arm antibody
B15: CE115HA000 V11L (antibody, human IgG1, kappa, L234A L235A, N297A, name in Kabat numbering)
heavy: B1 heavy with V11L, K60T
chain: B1 chain
light: B1 light
notes: one-arm antibody
B16: CE115HA000 V95K (antibody, human IgG1, kappa, L234A L235A, N297A, name in Kabat numbering)
heavy: B1 heavy with K60T, V101K
chain: B1 chain
light: B1 light
notes: one-arm antibody
B17: CE115HA000 V100cD (antibody, human IgG1, kappa, L234A L235A, N297A, name in Kabat numbering)
heavy: B1 heavy with K60T, V109D
chain: B1 chain
light: B1 light
notes: one-arm antibody
B18: CE115HA000 W33Y (antibody, human IgG1, kappa, L234A L235A, N297A, name in Kabat numbering)
heavy: B1 heavy with W33Y, K60T
chain: B1 chain
light: B1 light
notes: one-arm antibody
B19: CE115HA000 W33D (antibody, human IgG1, kappa, L234A L235A, N297A, name in Kabat numbering)
heavy: B1 heavy with W33D, K60T
chain: B1 chain
light: B1 light
notes: one-arm antibody
B20: CE115HA000 Y58D (antibody, human IgG1, kappa, L234A L235A, N297A, name in Kabat numbering)
heavy: B1 heavy with K60T, Y61D
chain: B1 chain
light: B1 light
notes: one-arm antibody
B21: CE115HA000 Y58Q (antibody, human IgG1, kappa, L234A L235A, N297A, name in Kabat numbering)
heavy: B1 heavy with K60T, Y61Q
chain: B1 chain
light: B1 light
notes: one-arm antibody
B22: CE115HA000 Y55S (antibody, human IgG1, kappa, L234A L235A, N297A, name in Kabat numbering)
heavy: B1 heavy with Y58S, K60T
chain: B1 chain
light: B1 light
notes: one-arm antibody
B23: CE115HA000 V95G (antibody, human IgG1, kappa, L234A L235A, N297A, name in Kabat numbering)
heavy: B1 heavy with K60T, V101G
chain: B1 chain
light: B1 light
notes: one-arm antibody
B24: CE115HA000 Y58A (antibody, human IgG1, kappa, L234A L235A, N297A, name in Kabat numbering)
heavy: B1 heavy with K60T, Y61A
chain: B1 chain
light: B1 light
notes: one-arm antibody
B25: CE115HA000 V95E (antibody, human IgG1, kappa, L234A L235A, N297A, name in Kabat numbering)
heavy: B1 heavy with K60T, V101E
chain: B1 chain
light: B1 light
notes: one-arm antibody
B26: CE115HA000 Y59S (antibody, human IgG1, kappa, L234A L235A, N297A, name in Kabat numbering)
heavy: B1 heavy with K60T, Y62S
chain: B1 chain
light: B1 light
notes: one-arm antibody
B27: CE115HA000 W33F (antibody, human IgG1, kappa, L234A L235A, N297A, name in Kabat numbering)
heavy: B1 heavy with W33F, K60T
chain: B1 chain
light: B1 light
notes: one-arm antibody
B28: CE115HA000 V95S (antibody, human IgG1, kappa, L234A L235A, N297A, name in Kabat numbering)
heavy: B1 heavy with K60T, V101S
chain: B1 chain
light: B1 light
notes: one-arm antibody
B29: CE115HA000 T57N (antibody, human IgG1, kappa, L234A L235A, N297A, name in Kabat numbering)
heavy: B1 heavy with K60N
chain: B1 chain
light: B1 light
notes: one-arm antibody
B30: CE115HA000 W33A (antibody, human IgG1, kappa, L234A L235A, N297A, name in Kabat numbering)
heavy: B1 heavy with W33A, K60T
chain: B1 chain
light: B1 light
notes: one-arm antibody
B31: CE115HA000 Y59D (antibody, human IgG1, kappa, L234A L235A, N297A, name in Kabat numbering)
heavy: B1 heavy with K60T, Y62D
chain: B1 chain
light: B1 light
notes: one-arm antibody
B32: CE115HA000 Y58S (antibody, human IgG1, kappa, L234A L235A, N297A, name in Kabat numbering)
heavy: B1 heavy with K60T, Y61S
chain: B1 chain
light: B1 light
notes: one-arm antibody

The experiment deals with T1, CD3 epsilon homodimer protein (UniProt P07766 23-126).
T1 construct: also called CD3 (CD3 epsilon)
T1 sequence (P07766 23-126): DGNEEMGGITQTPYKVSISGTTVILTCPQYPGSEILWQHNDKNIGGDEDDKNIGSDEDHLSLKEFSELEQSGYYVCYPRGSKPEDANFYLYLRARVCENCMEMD
Kind of experiment: SPR, CD3 epsilon homodimer on chip, one-arm antibody as analyte.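 Also: surface plasmon resonance at 25 °C with CD3 epsilon homodimer amine-coupled to a CM4 sensor chip, antibody injected as analyte, HBS-EP+ as running buffer.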 A general note: SPR reads the build-up and loss of mass on a sensor chip optically.
For B1, the “KD ratio (KD of CE115HA000/KD of altered form)” value (“KD ratio” below) was 1.22.

Consider B2, for which the “KD ratio” value was determined as 108.

On to B3, for which the “KD ratio” value was determined as 1.86. The value for B4 was 1.21. On to B5, for which the “KD ratio” value was determined as 3.15. The value for B6 was 0.89; that for B7 was 4.96.

For B8, the “KD ratio” value worked out at 0.99. As for B9, the “KD ratio” value is 41300. The value for B10 was 0.61. For the molecule B11, the “KD ratio” value is 0.97. Take B12: the “KD ratio” value turned out to be 0.66. On to B13, for which the “KD ratio” value amounted to 1.31. B14: the “KD ratio” value turned out to be 0.74.

In the case of B15, the “KD ratio” value was found to be 0.83. As for B16, the figure is 1.15; as for B17, 1.64. In the case of B18, the “KD ratio” value is 0.69. As for B19, the figure is 1690; as for B20, 4.81. On to B21, for which the “KD ratio” value is 1.24. As to B22, the “KD ratio” value came out at 5.65.

Take B23: the “KD ratio” value is 78300. As for B24, the figure is 1.06; as for B25, 50.5.

On to B26, for which the “KD ratio” value amounted to 0.79. As for B27, the figure is 0.66; as for B28, 4.61; as for B29, 0.9. For B30, the “KD ratio” value came to 30. Regarding B31, the “KD ratio” value amounted to 0.66.

With B32, the “KD ratio” value is 1.22.
